Starred links: 1 amine or outer side, 2 acyl side, 3 side chain; linkers in the order of their positions; H or OH if unused. Positions of bridges follow the written chain, without caps; N, C: chain ends. Non-standard residues stand in square brackets, D forms with d. Groups on a side chain read outwards from the residue. Primed or numbered codes have the meaning given here. *: point of attachment. MeKCOpipzaa″ = (2S)-6-{[4-(carboxymethyl)piperazine-1-carbonyl]amino}-2-(methylamino)hexanoic acid, CN([C@@H](CCCCNC(=O)N1CCN(CC(=O)[*:3])CC1)C(=O)[*:2])[*:1]; MeDapCOpipzaa = 3-(4-(carboxymethyl)piperazine-1-carboxamido)-2-(methylamino)propanoic acid, CN([C@@H](CNC(=O)N1CCN(CC(=O)[*:3])CC1)C(=O)[*:2])[*:1]; MeKCOpipzaa = N-alpha-methyl-N6-[4-(carboxymethyl)piperazine-1-carbonyl]-L-lysine, CN([C@@H](CCCCNC(=O)N1CCN(CC(=O)[*:3])CC1)C(=O)[*:2])[*:1]; W5N = 2-amino-3-(1H-pyrrolo[3,2-c]pyridin-3-yl)propanoic acid (5-aza-tryptophan), O=C([C@H](Cc1c[nH]c2ccncc12)N[*:1])[*:2]; 3Py6NHaa = 2-amino-3-(6-((carboxymethyl)amino)pyridin-3-yl)propanoic acid, O=C([C@H](Cc1ccc(NCC(=O)[*:3])nc1)N[*:1])[*:2]; MeHseMe(3) = N-methyl-O-methyl-homoserine, 4-methoxy-2-(methylamino)butanoic acid, COCC[C@@H](C(=O)[*:2])N(C)[*:1]; F4aao″ = 2-amino-3-(4-(carboxymethoxy)phenyl)propanoic acid, O=C([C@H](Cc1ccc(OCC(=O)[*:3])cc1)N[*:1])[*:2]; F4aao = 4-(carboxymethoxy)-L-phenylalanine, O=C([C@H](Cc1ccc(OCC(=O)[*:3])cc1)N[*:1])[*:2]; MeHseMe = N-methyl-O-methyl-L-homoserine, COCC[C@@H](C(=O)[*:2])N(C)[*:1]; Thr(Me)(3) = TMe, O-methyl-L-threonine, CO[C@H](C)[C@H](N[*:1])C(=O)[*:2]; Thr(Me)″ = TMe = O-methyl-L-threonine, CO[C@H](C)[C@H](N[*:1])C(=O)[*:2]; Phe(4-(1-Me-pyrazol-4-yl)) = Cn1cc(-c2ccc(C[C@H](N)C(=O)O)cc2)cn1; TMe = O-methyl-L-threonine, CO[C@H](C)[C@H](N[*:1])C(=O)[*:2]; NMeAla(isoquinolin-7-yl) = CN[C@@H](Cc1ccc2ccncc2c1)C(=O)O; SulfoCy5(3) = sulfo-Cyanine5 hexanoyl dye on the lysine NZ; PEG12 = NCCOCCOCCOCCOCCOCCOCCOCCOCCOCCOCCOCCOCCC(=O)O; Phe(4-CH2COOH) = N[C@@H](Cc1ccc(CC(=O)O)cc1)C(=O)O; 3Pal(6-Ph) = N[C@@H](Cc1ccc(-c2ccccc2)nc1)C(=O)O; Biotin = O=C1N[C@H]2[C@H](CS[C@H]2CCCCC(=O)*)N1; Phe(4-COOH) = N[C@@H](Cc1ccc(C(=O)O)cc1)C(=O)O; S3REt = (3R)-2-amino-3-hydroxypentanoic acid; NMe2Nal = CN[C@@H](Cc1ccc2ccccc2c1)C(=O)O; AEF = NCCOc1ccc(C[C@H](N)C(=O)O)cc1; NMe3Pal = CN[C@@H](Cc1cccnc1)C(=O)O; NMeY = CN[C@@H](Cc1ccc(O)cc1)C(=O)O; NMeI = CC[C@H](C)[C@H](NC)C(=O)O; aIle = CC[C@@H](C)[C@H](N)C(=O)O; NMeQ = CN[C@@H](CCC(N)=O)C(=O)O; NMeK = CN[C@@H](CCCCN)C(=O)O; NMeC = CN[C@@H](CS)C(=O)O; NMeA = CN[C@@H](C)C(=O)O; MeK = methyl-L-lysine

B1: PLB-1 (peptide)
peptide: {CH2CO}-[NMeK]([PEG12-Biotin])[NMeI]D[NMeQ][Phe(4-COOH)]IIY[NMeAla(isoquinolin-7-yl)]G[3Pal(6-Ph)][NMeC]-NH2
modifications: thioether N-12
notes: Biotin conjugate
B2: PLD-1 (peptide)
peptide: {CH2CO}-[NMeK](SulfoCy5(3))[NMeI]D[NMeQ][Phe(4-COOH)]IIY[NMeAla(isoquinolin-7-yl)]G[3Pal(6-Ph)][NMeC]-NH2
modifications: thioether N-12
B3: PLB-35 (peptide)
peptide: KQDQFTIFFGXC
modifications: biotin-PEG12c conjugate of the peptide of SEQ ID No. 35 (MeK-MeQ-D-MeQ-F4COO-TMe-I-F4aao-MeNal27N-G-3Py6Ph-MeC-NH2); site of attachment shown only in a drawing; thioether ring from N-terminal acetyl to MeC12
B4: Macrocyclic peptide of Example 2-47 (SEQ ID No. 21) (peptide)
peptide: {CH2CO}-[MeK][MeHseMe(3)]D[NMeQ][Phe(4-COOH)]II[Phe(4-CH2COOH)][NMe2Nal]G[3Pal(6-Ph)][NMeC]-NH2
modifications: thioether N-12
B5: Macrocyclic peptide of Example 2-40 (SEQ ID No. 66) (peptide)
peptide: {CH2CO}-[NMeA][NMeY]DY[TMe]IY[NMe2Nal]G[3Pal(6-Ph)][NMeC]-NH2
modifications: thioether N-11
SMILES: CC[C@H](C)[C@@H]1NC(=O)[C@H]([C@@H](C)OC)NC(=O)[C@H](Cc2ccc(O)cc2)NC(=O)[C@H](CC(=O)O)NC(=O)[C@H](Cc2ccc(O)cc2)N(C)C(=O)[C@H](C)N(C)C(=O)CSC[C@@H](C(N)=O)N(C)C(=O)[C@H](Cc2ccc(-c3ccccc3)nc2)NC(=O)CNC(=O)[C@H](Cc2ccc3ccccc3c2)N(C)C(=O)[C@H](Cc2ccc(O)cc2)NC1=O
notes: 11 residues
B6: Macrocyclic peptide of Example 2-38 (SEQ ID No. 55) (peptide)
peptide: KSDXFTIXFGXC
modifications: not fully specified; MeKCOpipzaa-MeHseMe-D-MeDapCOpipzaa-F4COO-TMe-I-Yae-MeNal27N-G-3Py6Ph-MeC-NH2; thioether ring from N-terminal acetyl to MeC12
B7: Macrocyclic peptide of Example 2-43 (SEQ ID No. 32) (peptide)
peptide: {CH2CO}-[NMeK][NMeI]D[NMeQ][Phe(4-COOH)][TMe]I[F4aao″][NMeAla(isoquinolin-7-yl)]G[3Pal(6-Ph)][NMeC]E-NH2
modifications: thioether N-12
SMILES: CC[C@H](C)[C@@H]1NC(=O)[C@H]([C@@H](C)OC)NC(=O)[C@H](Cc2ccc(C(=O)O)cc2)NC(=O)[C@H](CCC(N)=O)N(C)C(=O)[C@H](CC(=O)O)NC(=O)[C@H]([C@@H](C)CC)N(C)C(=O)[C@H](CCCCN)N(C)C(=O)CSC[C@@H](C(=O)N[C@@H](CCC(=O)O)C(N)=O)N(C)C(=O)[C@H](Cc2ccc(-c3ccccc3)nc2)NC(=O)CNC(=O)[C@H](Cc2ccc3ccncc3c2)N(C)C(=O)[C@H](Cc2ccc(OCC(=O)O)cc2)NC1=O
B8: Macrocyclic peptide of Example 2-28 (SEQ ID No. 44) (peptide)
peptide: {CH2CO}-[NMeA][MeHseMe]D[NMeQ][Phe(4-COOH)][Thr(Me)″]I[AEF][NMe2Nal]G[3Pal(6-Ph)][NMeC]-NH2
modifications: thioether N-12
B9: Macrocyclic peptide of Example 2-46 (SEQ ID No. 6) (peptide)
peptide: {CH2CO}-[MeK][NMeI]Q[NMeQ][Phe(4-COOH)]II[Phe(4-COOH)][NMe2Nal]G[Phe(4-(1-Me-pyrazol-4-yl))][NMeC]-NH2
modifications: thioether N-12
B10: Macrocyclic peptide of Example 2-26 (SEQ ID No. 30) (peptide)
peptide: {CH2CO}-[NMeK][NMeI]D[NMeQ][Phe(4-COOH)][Thr(Me)(3)]I[F4aao][NMeAla(isoquinolin-7-yl)]G[3Pal(6-Ph)][NMeC]-NH2
modifications: thioether N-12
SMILES: CC[C@H](C)[C@@H]1NC(=O)[C@H]([C@@H](C)OC)NC(=O)[C@H](Cc2ccc(C(=O)O)cc2)NC(=O)[C@H](CCC(N)=O)N(C)C(=O)[C@H](CC(=O)O)NC(=O)[C@H]([C@@H](C)CC)N(C)C(=O)[C@H](CCCCN)N(C)C(=O)CSC[C@@H](C(N)=O)N(C)C(=O)[C@H](Cc2ccc(-c3ccccc3)nc2)NC(=O)CNC(=O)[C@H](Cc2ccc3ccncc3c2)N(C)C(=O)[C@H](Cc2ccc(OCC(=O)O)cc2)NC1=O
B11: Macrocyclic peptide of Example 2-29 (SEQ ID No. 46) (peptide)
peptide: {CH2CO}-[NMeK][MeKCOpipzaa]D[MeDapCOpipzaa][Phe(4-COOH)][Thr(Me)″]I[F4aao][NMeAla(isoquinolin-7-yl)]G[3Pal(6-Ph)][NMeC]-NH2
modifications: thioether N-12
B12: Macrocyclic peptide of Example 2-42 (SEQ ID No. 31) (peptide)
peptide: {CH2CO}-[NMeK][NMeI]D[NMeQ][Phe(4-COOH)][TMe]I[F4aao″][NMeAla(isoquinolin-7-yl)]G[3Pal(6-Ph)][NMeC][dE]-NH2
modifications: thioether N-12
SMILES: CC[C@H](C)[C@@H]1NC(=O)[C@H]([C@@H](C)OC)NC(=O)[C@H](Cc2ccc(C(=O)O)cc2)NC(=O)[C@H](CCC(N)=O)N(C)C(=O)[C@H](CC(=O)O)NC(=O)[C@H]([C@@H](C)CC)N(C)C(=O)[C@H](CCCCN)N(C)C(=O)CSC[C@@H](C(=O)N[C@H](CCC(=O)O)C(N)=O)N(C)C(=O)[C@H](Cc2ccc(-c3ccccc3)nc2)NC(=O)CNC(=O)[C@H](Cc2ccc3ccncc3c2)N(C)C(=O)[C@H](Cc2ccc(OCC(=O)O)cc2)NC1=O
B13: Macrocyclic peptide of Example 2-30 (SEQ ID No. 47) (peptide)
peptide: {CH2CO}-[NMeK][MeKCOpipzaa]D[MeDapCOpipzaa][3Py6NHaa][Thr(Me)″]I[F4aao][NMeAla(isoquinolin-7-yl)]G[3Pal(6-Ph)][NMeC]-NH2
modifications: thioether N-12
B14: Macrocyclic peptide of Example 2-25 (SEQ ID No. 59) (peptide)
peptide: {CH2CO}-[MeKCOpipzaa″][MeHseMe]D[NMeQ][Phe(4-COOH)][S3REt]IY[NMeAla(isoquinolin-7-yl)]G[3Pal(6-Ph)][NMeC]-NH2
modifications: thioether N-12
B15: Macrocyclic peptide of Example 2-32 (SEQ ID No. 49) (peptide)
peptide: KKDKFTIFFGXC
modifications: not fully specified; MeK-MeKCOpipzaa-D-MeKCOpipzaa-F4COO-TMe-I-F4aaopipzaa-MeNal27N-G-3Py6Ph-MeC-NH2; thioether ring from N-terminal acetyl to MeC12
B16: Macrocyclic peptide of Example 2-39 (SEQ ID No. 67) (peptide)
peptide: ASDYIIYFGXC
modifications: not fully specified; MeA-S-(position 3 absent)-D-Y-I-I-Y-MeNal2-G-3Py6Ph-MeC-NH2; thioether ring from N-terminal acetyl to MeC
notes: 11 residues
B17: Macrocyclic peptide of Example 2-41 (SEQ ID No. 68) (peptide)
peptide: {CH2CO}-[NMeA]S[W5N]YIIY[NMe2Nal]G[3Pal(6-Ph)][NMeC]-NH2
modifications: thioether N-11
SMILES: CC[C@H](C)[C@@H]1NC(=O)[C@H](Cc2ccc(O)cc2)NC(=O)[C@H](Cc2c[nH]c3ccncc23)NC(=O)[C@H](CO)NC(=O)[C@H](C)N(C)C(=O)CSC[C@@H](C(N)=O)N(C)C(=O)[C@H](Cc2ccc(-c3ccccc3)nc2)NC(=O)CNC(=O)[C@H](Cc2ccc3ccccc3c2)N(C)C(=O)[C@H](Cc2ccc(O)cc2)NC(=O)[C@H]([C@@H](C)CC)NC1=O
notes: 11 residues
B18: Macrocyclic peptide of Example 2-44 (SEQ ID No. 69) (peptide)
peptide: {CH2CO}-[NMeA][NMe3Pal]DY[aIle]IY[NMe2Nal]G[3Pal(6-Ph)][NMeC]-NH2
modifications: thioether N-11
SMILES: CC[C@@H](C)[C@@H]1NC(=O)[C@H](Cc2ccc(O)cc2)NC(=O)[C@H](CC(=O)O)NC(=O)[C@H](Cc2cccnc2)N(C)C(=O)[C@H](C)N(C)C(=O)CSC[C@@H](C(N)=O)N(C)C(=O)[C@H](Cc2ccc(-c3ccccc3)nc2)NC(=O)CNC(=O)[C@H](Cc2ccc3ccccc3c2)N(C)C(=O)[C@H](Cc2ccc(O)cc2)NC(=O)[C@H]([C@@H](C)CC)NC1=O
notes: 11 residues

This test concerns the target T1, Human Glypican3-Fc (ACRO Biosystems, GP3-H5258) (human, UniProt P51654 25-559).
T1 construct: Bought fusion protein, captured in Methods B-2, B-3 and B-4; Catalogue number is printed only in Method B-2; not shown: Fc part of the bought fusion
The experiment in a line: SPR (Biacore T200), Method B-3: Glypican3-Fc captured on Protein A chip, peptide as analyte. Here is the method: A Protein A sensor chip (Cytiva) was inserted into a Biacore T200 (Cytiva), priming was performed three times with a running buffer: HBS-P+, pH 7.4 (Cytiva), and equilibration was carried out at a flow rate of 30 μL/min. Glypican3-Fc was allowed to react for 60 seconds at a flow rate of 10 μL/min. After capturing human Glypican3-Fe, a peptide solution prepared to 10 mM in DMSO solution was diluted with a running buffer to a final concentration of 10 μM. […] Using the above samples, peptide kinetics for Glypican3 was obtained by SPR measurement. Kinetics evaluation of Glypican3 was performed by SPR measurements at a flow rate of 10 LL/min, setting the association time to 120 seconds and the disassociation time to 600 seconds.
The obtained data by Method B-1, Method B-2, Method B-3 and Method B-4 were analyzed by follow. Single Cycle Kinetics was used as the kinetics evaluation model, and curve fitting was performed using Biacore T200 Evaluation Software Version 3.0 (Cytiva).
(In general: In SPR one partner is held on a chip, and binding of the other changes the refractive index at the surface.)
One may read the Kd as the concentration at which binding is half-saturated. A low value points to tighter binding. As to B1, the Kd came to 0.25 nM.
The molecule B2 displayed a Kd of 0.32 nM.
B3 had a Kd of 3.63 nM.
With B4, the affinity, expressed as Kd, was 0.2 nM.
In the case of B5 it was 21.5 nM.
Take B6: the affinity, expressed as Kd, was 1.8 nM. This Kd lies about 12-fold lower than the previous one.
In the case of B7 it was 9.3 nM; in that of B8, 0.3 nM.
For the molecule B9, binding was put at a Kd of 0.2 nM.
B10 came in with a Kd of 0.3 nM.
In turn, B11 returned a Kd of 1 nM.
The result for B12 reads 3.2 nM; that for B13, 6.6 nM.
In the case of B14 it was 6.6 nM.
In the case of B15 it was 1.8 nM; in that of B16, 25.3 nM.
As to B17, the equilibrium dissociation constant (Kd) is 58.5 nM.
B18 registered a Kd of 49.1 nM.

(Values after US20260241049A1, “Radiopharmaceutical Compositions Targeting Glypican-3 and Uses Thereof” (RayzeBio, Inc., priority 2023, published 2026).)
